Experimental data as given in publication PMC11672684 (Cell Reports, 2024).

Columns and labels:
H7 A/Anhui/1/2013 HA = H7 A/Anhui/1/2013 HA (Influenza A virus A/Anhui/1/2013 (H7N9), UniProt A0A024E3P0); assay: BLI; […], dissociation 5 min; 1% BSA in PBS; 30°C; […]; settings: both partners purified
H5 HA = H5 HA (Influenza A virus H5, assay strain not …, UniProt A5A5L7); assay: ELISA + BLI; settings: both partners purified

B1: 43_S0008 (antibody, V domains shown)
VH: QVQLVQSGAEVKKPGSSVKVSCKASGGTFRTFGISWVRQAPGQGLEWMGWIIPIIGTPNYAQKFQGRVIITADESSNTAYMELNSLKSEDTAVYYCAKEGRALLRYFDWLPLDAFDIWGQGTMVTVSS
VL: DIVLTQTPLSLPVSLGDQASISCRSSQSLVHSDGNTYLHWYLQKPGQSPKLLIYKVSNRFSGVPDRFSGSGSGTDFTLKISRVEAEDLGVYFCSQSTHVPPLTFGAGTKLELK
notes: also called mAb 43_S0008; IGHV1-69 + IGHD3-9 mAb 43_S0008; source: Expi293 cells, purified (protein A)
- binding result (H7 A/Anhui/1/2013 HA): binds
- binding result (H5 HA): binds
